Measurements published in patent US20210032331A1 (PHANES THERAPEUTICS, published 2021).

T1: full-length human LAG-3 on stably transfected CHO-S cells (human, UniProt P18627 23-525)
T1 construct: also called hLAG3
T1 sequence: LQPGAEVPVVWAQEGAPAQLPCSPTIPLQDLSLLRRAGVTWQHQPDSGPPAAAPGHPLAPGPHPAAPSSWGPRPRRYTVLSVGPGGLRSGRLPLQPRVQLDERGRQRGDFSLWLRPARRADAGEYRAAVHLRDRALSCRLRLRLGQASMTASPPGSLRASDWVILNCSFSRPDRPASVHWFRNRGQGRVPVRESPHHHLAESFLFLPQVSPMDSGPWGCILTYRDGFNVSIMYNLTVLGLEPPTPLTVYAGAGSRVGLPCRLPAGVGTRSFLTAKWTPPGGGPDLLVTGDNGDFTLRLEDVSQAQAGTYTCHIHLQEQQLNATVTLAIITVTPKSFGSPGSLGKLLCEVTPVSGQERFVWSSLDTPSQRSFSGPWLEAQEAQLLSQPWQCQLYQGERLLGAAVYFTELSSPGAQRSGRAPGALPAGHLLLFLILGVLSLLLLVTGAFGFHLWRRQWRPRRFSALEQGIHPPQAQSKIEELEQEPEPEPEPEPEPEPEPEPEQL

T2: human LAG-3(ECD)-mFc (human, UniProt P18627 23-450)
T2 construct: also called hLAG3-mFc; human LAG-3 extracellular domain (ECD) fused to mouse Fc; not shown: mouse Fc
T2 sequence: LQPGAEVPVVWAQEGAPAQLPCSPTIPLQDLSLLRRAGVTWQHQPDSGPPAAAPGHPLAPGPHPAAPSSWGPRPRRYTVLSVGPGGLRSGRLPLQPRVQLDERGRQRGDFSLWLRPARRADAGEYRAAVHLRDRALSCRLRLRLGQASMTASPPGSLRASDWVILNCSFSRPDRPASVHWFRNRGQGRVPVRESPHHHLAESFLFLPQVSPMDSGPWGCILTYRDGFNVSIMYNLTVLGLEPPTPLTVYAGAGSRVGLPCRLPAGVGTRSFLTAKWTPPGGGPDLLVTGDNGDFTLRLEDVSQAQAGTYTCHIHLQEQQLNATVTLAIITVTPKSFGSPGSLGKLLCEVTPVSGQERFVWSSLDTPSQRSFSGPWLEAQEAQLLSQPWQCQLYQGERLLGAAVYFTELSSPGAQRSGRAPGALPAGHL


Tests used:
B5/IgG4 = molecular target: T3, B5/IgG4; assay: ELISA peptide competition: peptide preincubated with B5/IgG4, competitor hLAG3-mFc; peptide at 600-fold hLAG3-mFc; capture on anti-human IgG, anti-mouse IgG-HRP
T3 construct: Chimeric: mouse VH and VL with human IgG4 heavy chain and kappa light chain constant regions; also called B5 (human IgG4 heavy chain and kappa light chain chimeric)
Protocol: (§1) FIGS. 5A-5D show the effect of competition peptides on LAG-3 binding to anti-LAG-3 mAbs. […] B5/IgG4 was preincubated with a competition peptide for 30 minutes. Then human LAG-3 extracellular domain (ECD) fused to mouse Fc (hLAG3-mFc) was added (the final peptide concentration was 600-fold that of hLAG3-mFc) and the mixture was incubated for 60 minutes before being added to an ELISA plate coated with anti-human IgG. The incubation was carried out at 4° C. overnight. After washing, the hLAG3-mFc bound to the immobilized B5/IgG4 on the ELISA plate was detected by adding anti-mouse IgG conjugated to horseradish peroxidase (HRP) and incubating for 60 minutes. Then, after washing, the ELISA was developed using One-step Detection Solution and measured as the absorbance at 450 nm.
(§2) Anti-human IgG in carbonate coating buffer was coated on an ELISA plate at 4° C. (50 μL/well at 1 μg/mL) overnight. In each well of a separate plate, a chimeric version of a given anti-LAG-3 mAb (50 μL/well at 1.4 nM) and a competition peptide (50 μL/well at various concentrations as indicated in the figures) were mixed and incubated for 30 minutes at room temperature. Then human LAG-3 extracellular domain (ECD) fused to mouse Fc (hLAG3-mFc) was added to each well (50 μL/well at 2 nM) and the final mixture was incubated at room temperature for 60 minutes before added to the ELISA plate (50 μL/well) for another 60-minute incubation. The final incubation after adding the mixture to the ELISA plate was also performed at 4° C. overnight in some assays. The plate was washed and the binding of hLAG3-mFc to the immobilized anti-LAG-3 mAb was detected by adding anti-mouse IgG conjugated to horseradish peroxidase ([…]) (ThermoFisher Scientific, Cat#: A16084; Waltham, Mass.) and incubating for 60 minutes.

[1] = molecular target: T4, B12 (human IgG1 heavy chain and kappa light chain chimeric); assay: ELISA peptide competition: peptide preincubated with chimeric IgG1 B12, competitor hLAG3-mFc; peptide at 600-fold hLAG3-mFc; capture on anti-human IgG, anti-mouse IgG-HRP
T4 construct: Chimeric: mouse VH and VL with human IgG1 heavy chain and kappa light chain constant regions
Protocol: as §1, §2

[2] = molecular target: T5, BG29 (human IgG4 heavy chain and kappa light chain chimeric); assay: ELISA peptide competition: peptide preincubated with chimeric IgG4 BG29, competitor hLAG3-mFc; peptide at 200-fold hLAG3-mFc; capture on anti-human IgG, anti-mouse IgG-HRP
T5 construct: Chimeric: mouse VH and VL with human IgG4 heavy chain and kappa light chain constant regions; also called chimeric BG29
Protocol: as §1, §2

[3] = molecular target: T1, full-length human LAG-3 on stably …; assay: FACS, CHO-S cells stably transfected with full-length human LAG-3, PE anti-mouse IgG
Protocol: CHO-S cells stably transfected with full-length human LAG-3 were transferred to a 96-well plate. Around 200,000 cells were incubated with either purified chimeric anti-LAG-3 mAbs (variable regions of mouse mAbs fused to the constant regions of human IgG1 heavy chain and kappa light chain, respectively) or purified mouse anti-LAG-3 mAbs from hybridoma supernatants at various concentrations for 15 minutes at 4° C. Cells were then centrifuged at 1,000 rpm for 5 minutes and washed with FACS buffer (PBS supplemented with 5% BSA) three times. For the cells treated with the chimeric antibodies, the cells were then incubated with PE-conjugated goat anti-human IgG polyclonal antibodies and incubated on ice for another 15 minutes; for the cells treated with mouse mAbs, the cells were incubated with PE-conjugated goat anti-mouse IgG polyclonal antibodies and incubated on ice for another 15 minutes. Cells were then washed with FACS buffer three times and then resuspended in FACS buffer containing 0.1 μg/ml PI (propidium iodide) for live/dead cell gating. Cells were then run through the FACS Caliber instrument and the data were analyzed by the Flowjo software. Results of the FACS binding analysis of the mouse anti-LAG-3 mAbs (B1, B2, B3, B4, B5, B6, B7, B8, B9, B10, B11, B12, and B13) are provided in FIGS. 1A-1B.

B7/IgG4 = molecular target: T6, B7/IgG4; assay: ELISA peptide competition: peptide preincubated with B7/IgG4, competitor hLAG3-mFc; peptide at 600-fold hLAG3-mFc; final incubation 60 min at room temperature; anti-mouse IgG-HRP
T6 construct: Chimeric: mouse VH and VL with human IgG4 heavy chain and kappa light chain constant regions; also called B7 (human IgG4 heavy chain and kappa light chain chimeric)
Protocol: B5/IgG4 was preincubated with a competition peptide for 30 minutes. Then human LAG-3 extracellular domain (ECD) fused to mouse Fc (hLAG3-mFc) was added (the final peptide concentration was 600-fold that of hLAG3-mFc) and the mixture was incubated for 60 minutes before being added to an ELISA plate coated with anti-human IgG. The incubation was carried out at 4° C. overnight. After washing, the hLAG3-mFc bound to the immobilized B5/IgG4 on the ELISA plate was detected by adding anti-mouse IgG conjugated to horseradish peroxidase (HRP) and incubating for 60 minutes. Then, after washing, the ELISA was developed using One-step Detection Solution and measured as the absorbance at 450 nm.
The assay condition is the same as in FIG. 5A except that the final incubation of the mAb, the competition peptide, and hLAG3-mFc on the ELISA plate was performed at room temperature for 60 minutes instead of incubation at 4° C. overnight.
Anti-human IgG in carbonate coating buffer was coated on an ELISA plate at 4° C. (50 μL/well at 1 μg/mL) overnight. In each well of a separate plate, a chimeric version of a given anti-LAG-3 mAb (50 μL/well at 1.4 nM) and a competition peptide (50 μL/well at various concentrations as indicated in the figures) were mixed and incubated for 30 minutes at room temperature. Then human LAG-3 extracellular domain (ECD) fused to mouse Fc (hLAG3-mFc) was added to each well (50 μL/well at 2 nM) and the final mixture was incubated at room temperature for 60 minutes before added to the ELISA plate (50 μL/well) for another 60-minute incubation.

human LAG-3(ECD)-mFc = molecular target: T2, human LAG-3(ECD)-mFc; assay: FACS blocking assay: mAb preincubated with LAG-3(ECD)-mFc (1 µg/mL), blocked ligand MHC class II on Daudi cells, PE anti-mouse Fc
Protocol: FIGS. 4A-4D show inhibition of human LAG-3 binding to MHC class II molecules by select anti-LAG-3 mAbs. An in vitro binding assay was performed using recombinant LAG-3(ECD)-mFc and Daudi cells which express human MHC class II molecules. […] The binding of LAG-3(ECD)-mFc to Daudi cells in the presence of anti-LAG-3 mAbs or a control mAb was analyzed by FACS.
Human Daudi cells were cultured in RPMI+10% FBS. Human LAG-3(ECD)-mFc protein (human LAG-3 ECD fused to mouse Fc) at 1 μg/ml final concentration was incubated with purified mouse, humanized, or chimeric anti-LAG-3 mAbs at various concentrations for 15 minutes at 4° C. The mixture was then added to 100,000 human Daudi cells in a 96-well round bottom plate, mixed and incubated for 15 minutes on ice. Cells were then centrifuged at 1,000 rpm for 5 minutes and washed with FACS buffer (PBS supplemented with 5% BSA) three times. The cells were then incubated with PE-conjugated goat anti-mouse Fc polyclonal antibodies on ice for 15 minutes, washed with FACS buffer three times and then resuspended in FACS buffer containing 0.1 μg/ml PI (propidine iodine) for live/dead cell gating. Cells were then run through the FACS Caliber instrument and the data were analyzed by the Flowjo software. Results of the inhibition of LAG-3 binding to Daudi cells by chimeric mAbs B1C, B3C, B4C, BSC, B9C, and B11C are shown in FIG. 4B.

T3 sequence (VH, as listed by the source, chain 1 of 2): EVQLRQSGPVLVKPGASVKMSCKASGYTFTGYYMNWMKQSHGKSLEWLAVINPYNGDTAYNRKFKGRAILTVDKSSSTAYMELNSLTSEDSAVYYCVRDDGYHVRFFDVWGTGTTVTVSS
T3 sequence (VL, as listed by the source, chain 2 of 2): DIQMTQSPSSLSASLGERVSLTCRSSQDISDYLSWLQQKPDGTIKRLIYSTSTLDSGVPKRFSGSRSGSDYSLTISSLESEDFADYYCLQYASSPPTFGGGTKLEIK
T6 sequence (VH, as listed by the source, chain 1 of 2): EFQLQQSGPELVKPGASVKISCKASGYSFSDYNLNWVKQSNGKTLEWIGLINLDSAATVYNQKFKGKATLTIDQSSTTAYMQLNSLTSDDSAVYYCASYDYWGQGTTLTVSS
T6 sequence (VL, as listed by the source, chain 2 of 2): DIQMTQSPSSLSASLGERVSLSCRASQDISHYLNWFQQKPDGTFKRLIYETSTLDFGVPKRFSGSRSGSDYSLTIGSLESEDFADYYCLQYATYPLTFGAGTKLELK

Row | Binder | binding result (B5/IgG4) | binding result [2] | EC50 (read off the curve) [3] [µg/mL] | further results
1 | GPPAAAPGHPLAPG (also called peptide 1-14) [1-14] | binds | binds | – | binding result [1]: binds
2 | B12 (antibody, V domains shown, Mouse mAb from hybridoma; also called mouse anti-LAG-3 mAb B12) VH: EVKLLESGGSLVQPGGSLKLSCAASGFDFSRYWMSWVRQAPGKGLEWIGEINPDSSTINYTPSLRDEFIISRDNAKNTLFLQMSKVISEDTALYYCARITSGYYFDYWGQGTTLTVSS VL: DVVMTQTPLSLPVSLGDQASISCRSSQTIVYSNGNTYLYWYLQKPGQSPKLLIYRVSNRFPGVPDRFSGSGSGTDFTLKISGVEAEDMGVYYCFQGTHVPFTFGSGTKLEMK | – | – | – | binding result [3]: binds; binding result (human LAG-3(ECD)-mFc): binds
3 | BG29 (antibody, V domains shown, Mouse mAb from hybridoma; also called mouse anti-LAG-3 mAb BG29) VH: QIQLQQSGPEVVKPGASVRISCKASGYTFSDYHINWVKQKPGQGLEWIGWIYPGRGDPEYNEKFKGKATLTVDRSASTAYMQLSSLTSEDTSVYFCEIYYGNYIDYWGQGTTLTVSS VL: DIVMTQAAPSVPVTPGESVSISCRSSKSLLHSDGKTYLYWFLQRPGQSPQRLIYYMSNLASGVPDRFSGRGSGTDFTLRISRVEAEDVGVYYCMQSLEYPWTFGGGTKLEIK | – | – | ~0.2 | –
4 | BG33 (antibody, V domains shown, Mouse mAb from hybridoma; also called mouse anti-LAG-3 mAb BG33) VH: QIQLQQSGPEVVKPGASVKISCKASGYTFSDYHINWVKQKPGQGLEWIGWIYPGRGNPEYNEKFKGKATLTVDRSANTAYMQLSSLTSEDSSVYFCEIYYGNYLDYWGQGTTLTVSS VL: DIVMTQAAPSVPVTPGESVSISCRSSKSLLHSDGKTYLYWFLQRPGQSPQRLIYYMSNLASGVPDRFSGRGSGTDFTLRISRVEAEDVGVYYCMQSLEYPWTFGGGTKLEIK | – | – | ~0.4 | –
5 | PPAAAPGHPLAPG (also called peptide 2-14) [2-14] | binds | binds | – | binding result [1]: binds

The next lines start with results.

Row | binding result (B5/IgG4) | binding result [2] | EC50 (read off the curve) [3] [µg/mL] | Binder | further results
6 | binds | binds | – | GPPAAAPGHPLAP (also called peptide 1-13) [1-13] | –
7 | – | – | ~0.3 | BG27 (antibody, V domains shown, Mouse mAb from hybridoma; also called mouse anti-LAG-3 mAb BG27) VH: QAYLQQSGADLVRPGASVKMSCKASGYTFTSYDMHWVKQTPRQGLEWIGAIYPGNGDASYNQKFKGKATLTVDKASSTAFMQLSSLTSEDSAVYFCARGDYGNYVWFAYWGQGTLVTVSA VL: DVVMTQTPLSLPVSLGDQASISCRSSQTIVHSNRYTYLEWYLQKPGQSLKLLIYGVSNRFSGVPDRFSGSGSGTDFTLKISRVEAEDMGVYYCFQGTHVPPTFGAGTKLELK | –
8 | – | binds | – | GPPAAAPGHPLAPGPHPAAPSSWGPRPRRY (also called peptide 1-30) [1-30] | binding result (B7/IgG4): binds
